From article PMC7878817

Legend:
[1] = target: human FcRn (human) (UniProt P55899); assay: BLI; pH 6.0
[2] = target: MD65 IgG-YTE (human); assay: BLI

Substance	Kd [1]	fold change of affinity (steady state) against MD65 IgG [2]	fold change of on-rate against MD65 IgG [2]
MD65 IgG-YTE	20 nM	–	–
human FcRn (from UniProt P55899 24-297) (receptor)	–	10 fold	3 fold
